Patent US20240247080A1, “GLP1/GIP/NPY2 RECEPTOR TRIPLE AGONISTS” (Boehringer Ingelheim International GmbH, priority 2022, published 2024)
Residue numbers refer to the chain shown, from its start. Each block holds one binder with its values, some of them ahead of it. Starred links: 1 amine or outer side, 2 acyl side, 3 side chain; linkers in the order of their positions; H or OH if unused. Non-standard residues stand in square brackets, D forms with d. Groups on a side chain read outwards from the residue. No end group written: not given here. *: point of attachment. C20 diacid = O=C(O)CCCCCCCCCCCCCCCCCCC(=O)*; C18 diacid = O=C(O)CCCCCCCCCCCCCCCCC(=O)*; γGlu = O=C(O)[C@H](CCC(=O)[*:2])N[*:1]; εLys = N[C@@H](CCCCN[*:1])C(=O)[*:2]; AEEA = NCCOCCOCC(=O)O; Aib = CC(C)(N)C(=O)O

Legend:
Test in all cases: cell-based or functional assay
[1] = molecular target: T1, NPY2 receptor (human (printed as hNPY2R), UniProt P49146 1-381)
T1 sequence (looked up): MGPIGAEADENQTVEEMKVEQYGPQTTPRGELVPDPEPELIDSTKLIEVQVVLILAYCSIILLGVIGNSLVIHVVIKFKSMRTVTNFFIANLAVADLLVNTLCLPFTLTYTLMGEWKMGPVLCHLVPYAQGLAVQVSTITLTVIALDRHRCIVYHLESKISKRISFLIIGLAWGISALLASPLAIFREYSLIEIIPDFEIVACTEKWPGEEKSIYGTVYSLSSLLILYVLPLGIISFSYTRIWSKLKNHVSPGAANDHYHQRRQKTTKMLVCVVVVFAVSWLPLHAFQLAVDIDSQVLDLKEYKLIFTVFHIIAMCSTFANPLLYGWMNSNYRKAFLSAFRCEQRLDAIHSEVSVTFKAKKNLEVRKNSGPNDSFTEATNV

[2] = molecular target: GLP-1 receptor (human (printed as hGLP1R), UniProt P43220 24-463)
[3] = molecular target: T2, GIP receptor (human (printed as hGIPR), UniProt P48546 22-466)
T2 sequence (looked up): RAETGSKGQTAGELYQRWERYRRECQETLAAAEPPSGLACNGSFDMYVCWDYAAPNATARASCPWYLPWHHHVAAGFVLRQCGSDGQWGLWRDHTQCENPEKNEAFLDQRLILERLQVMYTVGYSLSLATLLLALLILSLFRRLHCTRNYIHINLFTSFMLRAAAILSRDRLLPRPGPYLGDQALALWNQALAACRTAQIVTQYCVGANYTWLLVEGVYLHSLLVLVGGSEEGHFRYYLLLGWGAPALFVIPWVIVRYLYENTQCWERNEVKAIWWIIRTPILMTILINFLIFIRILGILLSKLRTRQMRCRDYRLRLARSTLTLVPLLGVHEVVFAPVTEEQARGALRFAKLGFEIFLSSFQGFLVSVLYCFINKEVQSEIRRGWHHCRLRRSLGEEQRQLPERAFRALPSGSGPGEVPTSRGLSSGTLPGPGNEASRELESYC

EC50 hNPY2R 0.5% hP (CreLuc) [1]: 13.1 nM | EC50 hNPY2R 100% hP (CreLuc) [1]: 69.9 nM | EC50 hGLP1R 0.5% hP (CreLuc) [2]: 0.47 nM | EC50 hGLP1R 100% hP (CreLuc) [2]: 15.8 nM | EC50 hGIPR 0.5% hP (CreLuc) [3]: 0.26 nM | EC50 hGIPR 100% hP (CreLuc) [3]: 5.01 nM
Binder: Y[Aib]EGTFTSDYSI[Aib]LEKQAQ[Aib]EFVEWLIKGGPSSGASLRHYYNWLTRQRY-NH2 (not fully specified (residue 28); also: TFA salt) [Compound 198]

EC50 hNPY2R 0.5% hP (CreLuc) [1]: 30 nM | EC50 hNPY2R 100% hP (CreLuc) [1]: 106 nM | EC50 hGLP1R 0.5% hP (CreLuc) [2]: 1.26 nM | EC50 hGLP1R 100% hP (CreLuc) [2]: 13.8 nM | EC50 hGIPR 0.5% hP (CreLuc) [3]: 0.94 nM | EC50 hGIPR 100% hP (CreLuc) [3]: 5.5 nM
Binder: Y[Aib]EGTFTSDYSI[Aib]LE[Aib]QAQ[Aib]AFVEWLIKGGPSSGASLRHYYNWLTRQRY-NH2 (not fully specified (residue 28); also: TFA salt) [Compound 199]

EC50 hNPY2R 0.5% hP (CreLuc) [1]: 13.3 nM | EC50 hNPY2R 100% hP (CreLuc) [1]: 66.8 nM | EC50 hGLP1R 0.5% hP (CreLuc) [2]: 0.4 nM | EC50 hGLP1R 100% hP (CreLuc) [2]: 11 nM | EC50 hGIPR 0.5% hP (CreLuc) [3]: 0.33 nM | EC50 hGIPR 100% hP (CreLuc) [3]: 5.59 nM
Binder: Y[Aib]EGTFTSDYSI[Aib]LEKQAQ[Aib]EFVQWLIK([γGlu-γGlu-γGlu-γGlu-γGlu-γGlu-C20 diacid])GGPSEGASLRHYYNWLTRQRY-NH2 (also: TFA salt) [Compound 185]

EC50 hNPY2R 0.5% hP (CreLuc) [1]: 16.9 nM | EC50 hNPY2R 100% hP (CreLuc) [1]: 105 nM | EC50 hGLP1R 0.5% hP (CreLuc) [2]: 0.15 nM | EC50 hGLP1R 100% hP (CreLuc) [2]: 5.93 nM | EC50 hGIPR 0.5% hP (CreLuc) [3]: 0.12 nM | EC50 hGIPR 100% hP (CreLuc) [3]: 1.16 nM
Binder: Y[Aib]EGTFTSDYSI[Aib]LEKQAQ[Aib]AFVQWLIK([AEEA-AEEA-Glu-Glu-Glu-C18 diacid])GGPEEGASLRHYYNWLTRQRY-NH2 (also: TFA salt) [Compound 188]

EC50 hNPY2R 0.5% hP (CreLuc) [1]: 13.6 nM | EC50 hNPY2R 100% hP (CreLuc) [1]: 73.3 nM | EC50 hGLP1R 0.5% hP (CreLuc) [2]: 0.36 nM | EC50 hGLP1R 100% hP (CreLuc) [2]: 20.8 nM | EC50 hGIPR 0.5% hP (CreLuc) [3]: 0.5 nM | EC50 hGIPR 100% hP (CreLuc) [3]: 3.4 nM
Binder: Y[Aib]EGTFTSDYSI[Aib]LEKQAQ[Aib]AFVQWLIK([AEEA-AEEA-γGlu-γGlu-γGlu-γGlu-C20 diacid])GGPEEGASLRHYYNWLTRQRY-NH2 (also: TFA salt) [Compound 193]

EC50 hNPY2R 0.5% hP (CreLuc) [1]: 16.5 nM | EC50 hNPY2R 100% hP (CreLuc) [1]: 102 nM | EC50 hGLP1R 0.5% hP (CreLuc) [2]: 0.14 nM | EC50 hGLP1R 100% hP (CreLuc) [2]: 3.23 nM | EC50 hGIPR 0.5% hP (CreLuc) [3]: 0.16 nM | EC50 hGIPR 100% hP (CreLuc) [3]: 1.23 nM
Binder: Y[Aib]EGTFTSDYSI[Aib]LEEQAQ[Aib]AFVEWLIK([εLys-γGlu-γGlu-γGlu-γGlu-γGlu-C20 diacid])GGPSSGASLRHYYNWLTRQRY-NH2 (also: TFA salt) [Compound 181]

EC50 hNPY2R 0.5% hP (CreLuc) [1]: 13.8 nM | EC50 hNPY2R 100% hP (CreLuc) [1]: 93.7 nM | EC50 hGLP1R 0.5% hP (CreLuc) [2]: 0.29 nM | EC50 hGLP1R 100% hP (CreLuc) [2]: 14.2 nM | EC50 hGIPR 0.5% hP (CreLuc) [3]: 0.2 nM | EC50 hGIPR 100% hP (CreLuc) [3]: 1.83 nM
Binder: Y[Aib]EGTFTSDYSI[Aib]LEKQAQ[Aib]EFVQWLIK([γGlu-γGlu-γGlu-γGlu-C20 diacid])GGPSEGASLRHYYNWLTRQRY-NH2 (also: TFA salt) [Compound 194]

EC50 hNPY2R 0.5% hP (CreLuc) [1]: 9.34 nM | EC50 hNPY2R 100% hP (CreLuc) [1]: 56.6 nM | EC50 hGLP1R 0.5% hP (CreLuc) [2]: 0.22 nM | EC50 hGLP1R 100% hP (CreLuc) [2]: 12.8 nM | EC50 hGIPR 0.5% hP (CreLuc) [3]: 0.28 nM | EC50 hGIPR 100% hP (CreLuc) [3]: 6.83 nM
Binder: Y[Aib]EGTFTSDYSI[Aib]LEKQAQ[Aib]AFVEWLIKGGPSSYASLRHYYNWLTRQRY-NH2 (not fully specified (residue 28); also: TFA salt) [Compound 183]

EC50 hNPY2R 0.5% hP (CreLuc) [1]: 19.6 nM | EC50 hNPY2R 100% hP (CreLuc) [1]: 107 nM | EC50 hGLP1R 0.5% hP (CreLuc) [2]: 0.1 nM | EC50 hGLP1R 100% hP (CreLuc) [2]: 3.61 nM | EC50 hGIPR 0.5% hP (CreLuc) [3]: 0.2 nM | EC50 hGIPR 100% hP (CreLuc) [3]: 3.88 nM
B1: Compound 180 (peptide)
peptide: YXEGTFTSDYSIXLEKQAQXAFVEWLIKGGPSSPASLRHYYNWLTRQRY
modifications: Aib at 2, 13, 20; K28 side chain carries C18DA-gGlu-gGlu-gGlu-gGlu-gGlu; C-terminal amide

EC50 hNPY2R 0.5% hP (CreLuc) [1]: 46 nM | EC50 hNPY2R 100% hP (CreLuc) [1]: 125 nM | EC50 hGLP1R 0.5% hP (CreLuc) [2]: 0.18 nM | EC50 hGLP1R 100% hP (CreLuc) [2]: 1.87 nM | EC50 hGIPR 0.5% hP (CreLuc) [3]: 0.28 nM | EC50 hGIPR 100% hP (CreLuc) [3]: 1.37 nM
B2: Compound 184 (peptide)
peptide: B1 peptide with P34G, Y41X
modifications: Aib at 2, 13, 20, 41; K28 side chain carries C20DA-gGlu-gGlu-gGlu-gGlu-gGlu-gGlu-eLys; C-terminal amide
